Where a chain is given by its changes, count along the chain named. Where two headings read alike, the source gives them in different places. Each block holds one binder with its values, some of them ahead of it.
How the values were obtained:
human ICOS [1] = target: T1, human ICOS (human, UniProt Q9Y6W8 21-199); assay: cell-based or functional assay
T1 sequence: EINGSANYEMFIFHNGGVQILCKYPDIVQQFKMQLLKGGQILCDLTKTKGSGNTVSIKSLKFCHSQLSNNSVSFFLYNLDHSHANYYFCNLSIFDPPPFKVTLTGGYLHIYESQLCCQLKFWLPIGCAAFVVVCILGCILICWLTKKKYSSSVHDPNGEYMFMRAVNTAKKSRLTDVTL

human ICOS [2] = target: T1, human ICOS; assay: flow cytometry, SR cells
Protocol: (§1) Briefly, suspension cells were harvested, counted, checked for viability and re-suspended at 1 million cells per ml in FACS buffer (PBS with 0.1% BSA). […] The staining was fixed for 20 min at 4° C. in the dark, using 75 μl of 1% PFA in FACS buffer per well.
(§2) In addition, binding of the above molecules to human SR cells (ATCC® CRL-2262) was performed as described above apart from the following modifications: SR cells were re-suspended at 2 million cells per ml in FACS buffer (BD).
(§3) Fluorescence was analyzed by FACS using a FACS Fortessa (Software FACS Diva). Binding curves and EC50 values were obtained using GraphPadPrism 7.

human ICOS [3] = target: T1, human ICOS; assay: flow cytometry, CHO cells expressing human ICOS
Protocol: as §1, §3

human ICOS [4] = target: T1, human ICOS; assay: flow cytometry, ICOS+ CHO cells, 120 nM anti-ICOS IgG, no ICOSL
Protocol: (§4) Briefly, cells were harvested, counted, checked for viability and re-suspended at 1 million cells per ml in FACS buffer (PBS with 0.1% BSA). […] Cells were washed again twice with cold PBS 0.1% BSA and then re-incubated and fixed for 20 min at 4° C. in the dark, using 75 μl of 1% PFA in FACS buffer per well. Fluorescence was analyzed by FACS using a FACS Fortessa (Software FACS Diva. Data was analyzed using GraphPadPrism 7.

human ICOS [5] = target: T1, human ICOS; assay: flow cytometry, MFI(ICOSL+anti-ICOS)/MFI(anti-ICOS only)*100 at 120 nM; competitor ICOSL
Protocol: as §4

human ICOS [6] = target: T1, human ICOS; assay: flow cytometry on SR cells expressing human ICOS, PE-labelled secondary antibody, MFI
Protocol: as §1, §2, §3

[7] = target: T2, recombinant monomeric human ICOS Fc(kih) Avi tag (human, UniProt P0DOX5 223-449 = IgG part, biotin on the Avi tag in the ligand-blocking and the SPR competition assays); assay: SPR competition on human ICOS Fc(kih); second injection 100 nM; competitor (row): Molecule 14
T2 construct: also called recombinant human ICOS; biotinylated human ICOS Fc(kih)
Protocol: (§5) Immobilization levels up to 600 resonance units (RU) were used. […] Bulk refractive index differences were corrected for by subtracting the response obtained on reference flow cell.
(§6) The SPR experiments were performed on a Biacore T200 at 25° C. with HBS-EP as running buffer (0.01 M HEPES pH 7.4, 0.15 M NaCl, 3 mM EDTA, 0.005% Surfactant P20, Biacore, Freiburg/Germany).

[8] = target: T2, recombinant monomeric human ICOS …; assay: SPR competition on human ICOS Fc(kih); second injection 100 nM; competitor (row): Molecule 18
Protocol: as §5, §6

[9] = target: T2, recombinant monomeric human ICOS …; assay: SPR competition on human ICOS Fc(kih); second injection 100 nM; competitor (row): Molecule 20
Protocol: as §5, §6

human ICOS [10] = target: T1, human ICOS; assay: flow cytometry, ICOS+ CHO cells, 120 nM anti-ICOS IgG pre-bound, then ICOSL (competitor) 120 nM
Protocol: as §4

[11] = target: T2, recombinant monomeric human ICOS …; assay: SPR (Biacore T200, 25 C), antibody captured on anti-rabbit Fc, ICOS Fc(kih) 7.5-600 nM as analyte, 1:1 Langmuir fit
Protocol: All SPR experiments were performed on a Biacore T200 at 25° C. with HBS-EP as running buffer (0.01 M HEPES pH 7.4, 0.15 M NaCl, 3 mM EDTA, 0.005% Surfactant P20, Biacore, Freiburg/Germany).
Setup 1: Anti-rabbit Fc antibody (Jackson ImmunoResearch, Cambridgeshire/UK) was directly coupled on a CM5 chip at pH 4.5 using the standard amine coupling kit (Biacore, Freiburg/Germany). The immobilization level was approximately 9000 RU. […] The dissociation was monitored for 720 seconds. Bulk refractive index differences were corrected for by subtracting the response obtained on reference flow cell.

human ICOS [12] = target: T1, human ICOS; assay: flow cytometry on CHO cells stably expressing human ICOS, PE-labelled secondary antibody, median fluorescence intensity (MFI)
Protocol: as §1, §3

human ICOS [13] = target: T1, human ICOS; assay: flow cytometry, SR cells; remark: listed apart in the source
human FAP [14] = target: T3, human FAP (human, UniProt Q12884 1-760); assay: flow cytometry, NIH/3T3-huFAP clone 19 cells
T3 construct: also called hu FAP
Protocol: as §1
(§7) Fluorescence was analyzed by FACS using a FACS Fortessa (Software FACS Diva). Binding curves and EC₅₀ values were obtained using GraphPadPrism 7.

human FAP [15] = target: T3, human FAP; assay: flow cytometry, NIH/3T3-huFAP clone 19 cells; remark: listed apart in the source
human ICOS [16] = target: T1, human ICOS; assay: flow cytometry, CHO cells expressing human ICOS; remark: listed apart in the source
Protocol: as §1, §7

cynomolgus ICOS [17] = target: T4, cynomolgus ICOS (cynomolgus, UniProt Q9Y6W8 21-195 (human entry)); assay: flow cytometry, activated cynomolgus PBMCs, CD4+ subset
T4 chain: T1 sequence with T54K, H81R, A129T, L136F, S152T, D176G, V177T, L179P
Protocol: as §1
(§8) Briefly, cynomolgus PBMCs were activated for 48 hours using Dynabeads™ Human T-Activator CD3/CD28 (Thermo Fischer #11131D) according to manufacturer instruction and stored in RPMI1640 medium containing 10% FCS and 1% Glutamax (Gibco 35050061) at 37° C., in a humidified incubator until subsequent binding experiment was performed, as described above.

cynomolgus ICOS [18] = target: T4, cynomolgus ICOS; assay: flow cytometry, activated cynomolgus PBMCs, CD8+ subset
Protocol: as §1, §8

human ICOS [19] = target: T1, human ICOS; assay: flow cytometry on SR cells expressing human ICOS, geometric MFI
[20] = target: T2, recombinant monomeric human ICOS …; assay: SPR competition on human ICOS Fc(kih); second injection 100 nM; competitor (row): Molecule 8
Protocol: as §5, §6

EC50 of activation of Jurkat-NFAT reporter cell line (luminescence) (human ICOS [1]): 0.13 nM
EC50 (human ICOS [2]): 0.00113 nM
EC50 (human ICOS [3]): 0.00069 nM
MFI (A488), IgG only (human ICOS [4]): 7800 MFI
Relative Binding (%) (human ICOS [5]): 98.2%
EC50 (read off the curve) (human ICOS [6]): ~1 nM
binding of the second injection (0 = no binding; 1 = binding) [7]: 0
binding of the second injection (0 = no binding; 1 = binding) [8]: 1
binding of the second injection (0 = no binding; 1 = binding) [9]: 0
MFI (A488), IgG + ICOSL (human ICOS [10]): 7660 MFI
Kd [11]: 76 nM
koff [11]: 0.0061 s⁻¹
kon [11]: 81000 M⁻¹ s⁻¹
t1/2 [11]: 0.0317 h
EC50 (read off the curve) (human ICOS [12]): ~0.7 nM
B1: Molecule 8 (rbIgG of 1167) (antibody, V domains shown)
VH: EVRLLESGGGLVQPGGSLRLSCAASGFTFNTYAVHWVRQAPGKGLEWVSGIGGSGVRTYYADSVKGRLTISRDNSKNTLYLQMNSLRAEDTAIYFCAKDIYVADFTGYAFDIWGQGTMVTVSS
VL: DIQMTQSPSSVSASVGDRVTITCRASQGINNFLAWYQQKPGKAPKLLIYDASSLQSGVPSRFAGSGSGTDFTLTISSLQPEDFATYYCQQYNFYPLTFGGGTMVEIKR
notes: Rabbit IgG format, from transgenic rabbit; also called ICOS (1167); clone 1167

EC50 (human ICOS [13]): 0.00117 nM
EC50 (human FAP [14]): 4.68 nM
EC50 (human FAP [15]): 0.00324 nM
EC50 (human ICOS [16]): 2.19 nM
EC50 (cynomolgus ICOS [17]): 6.53 nM
EC50 (cynomolgus ICOS [18]): 8.34 nM
EC50 (read off the curve) (human ICOS [19]): ~1 nM
B2: Molecule 22, bispecific 2+1 anti-ICOS (1143v2)/anti-FAP (4B9) huIgG1 P329GLALA kih (bispecific antibody)
heavy 1: QSLEESGGDLVKPGASLTLTCKASGFDFSSAYDMSWVRQAPGKGLEWIGVIYYGDGITYYATSVKGRFTISKTSSTTVPLQMTSLTAADTATYFCARGAFLGSSYYLSLWGQGTLVTVSSASTKGPSVFPLAPSSKSTSGGTAALGCLVKDYFPEPVTVSWNSGALTSGVHTFPAVLQSSGLYSLSSVVTVPSSSLGTQTYICNVNHKPSNTKVDKKVEPKSCDKTHTCPPCPAPEAAGGPSVFLFPPKPKDTLMISRTPEVTCVVVDVSHEDPEVKFNWYVDGVEVHNAKTKPREEQYNSTYRVVSVLTVLHQDWLNGKEYKCKVSNKALGAPIEKTISKAKGQPREPQVCTLPPSRDELTKNQVSLSCAVKGFYPSDIAVEWESNGQPENNYKTTPPVLDSDGSFFLVSKLTVDKSRWQQGNVFSCSVMHEALHNHYTQKSLSLSPGGGGGSGGGGSGGGGSGGGGSEIVLTQSPGTLSLSPGERATLSCRASQSVTSSYLAWYQQKPGQAPRLLINVGSRRATGIPDRFSGSGSGTDFTLTISRLEPEDFAVYYCQQGIMLPPTFGQGTKVEIK
heavy 2: not shown
light: AIDMTQTPASVEAAVGGTVTINCQASENIYNWLAWYQQKPGQPPKLLIYDASKLASGVPSRFSASGSGTQFTLTISAVESADAATYYCQQAYTYGNIDNAFGGGTEVVVSRTVAAPSVFIFPPSDEQLKSGTASVVCLLNNFYPREAKVQWKVDNALQSGNSQESVTEQDSKDSTYSLSSTLTLSKADYEKHKVYACEVTHQGLSSPVTKSFNRGEC

EC50 of activation of Jurkat-NFAT reporter cell line (luminescence) (human ICOS [1]): 0.02 nM
EC50 (human ICOS [2]): 0.0004 nM
EC50 (human ICOS [3]): 0.0003 nM
MFI (A488), IgG only (human ICOS [4]): 6320 MFI
Relative Binding (%) (human ICOS [5]): 100%
binding of the second injection (0 = no binding; 1 = binding) [20]: 0
EC50 (read off the curve) (human ICOS [6]): ~0.4 nM
binding of the second injection (0 = no binding; 1 = binding) [7]: 0
binding of the second injection (0 = no binding; 1 = binding) [8]: 1
MFI (A488), IgG + ICOSL (human ICOS [10]): 6340 MFI
Kd [11]: 0.1 nM
koff [11]: 2.3e-05 s⁻¹
kon [11]: 170000 M⁻¹ s⁻¹
t1/2 [11]: 8.3 h
EC50 (read off the curve) (human ICOS [12]): ~0.3 nM
B3: Molecule 20 (rbIgG of 1143) (antibody, V domains shown)
VH: QSLEESGGDLVKPGASLTLTCKASGFDFSSAYDMCWVRQAPGKGLEWIGCVYYGDGITYYATWAKGRFTISKTSSTTVPLQMTSLTAADTATYFCARGAFLGSSYYLSLWGQGTLVTVSS
VL: AIDMTQTPASVEAAVGGTVTINCQASENIYNWLAWYQQKPGQPPKLLIYDASKLASGVPSRFSASGSGTQFTLTISAVECADAATYYCQQAYTYGNIDNAFGGGTEVVVSG
notes: Rabbit IgG format; also called ICOS (1143); clone 1143

EC50 (human FAP [14]): 6.16 nM
EC50 (human ICOS [16]): 5.44 nM
EC50 (cynomolgus ICOS [17]): 13.5 nM
EC50 (cynomolgus ICOS [18]): 14 nM
B4: Molecule 19, bispecific 2+1 anti-ICOS (1138)/anti-FAP (4B9) huIgG1 P329GLALA kih (bispecific antibody)
heavy 1: QSLEESGGDLVKPGASLTLTCTASGFDLSSYYYMSWVRQAPGKGLEWIASIYADIYGGTTHYASWAKGRFTISKTSSTTVTLQMTSLTAADTATYFCAREDGSRYGGSGYYNLWGPGTLVTVSSASTKGPSVFPLAPSSKSTSGGTAALGCLVKDYFPEPVTVSWNSGALTSGVHTFPAVLQSSGLYSLSSVVTVPSSSLGTQTYICNVNHKPSNTKVDKKVEPKSCDKTHTCPPCPAPEAAGGPSVFLFPPKPKDTLMISRTPEVTCVVVDVSHEDPEVKFNWYVDGVEVHNAKTKPREEQYNSTYRVVSVLTVLHQDWLNGKEYKCKVSNKALGAPIEKTISKAKGQPREPQVCTLPPSRDELTKNQVSLSCAVKGFYPSDIAVEWESNGQPENNYKTTPPVLDSDGSFFLVSKLTVDKSRWQQGNVFSCSVMHEALHNHYTQKSLSLSPGGGGGSGGGGSGGGGSGGGGSEIVLTQSPGTLSLSPGERATLSCRASQSVTSSYLAWYQQKPGQAPRLLINVGSRRATGIPDRFSGSGSGTDFTLTISRLEPEDFAVYYCQQGIMLPPTFGQGTKVEIK
heavy 2: not shown
light: ALVMTQTPSSVSAAVGGTVTINCQASQNIYSNLAWYQQKPGQPPKLLIYAASYLTSGVSSRFKGSGAGTQFTLTISGVESADAATYYCQQGHTTDNIDNAFGGGTEVVVKRTVAAPSVFIFPPSDEQLKSGTASVVCLLNNFYPREAKVQWKVDNALQSGNSQESVTEQDSKDSTYSLSSTLTLSKADYEKHKVYACEVTHQGLSSPVTKSFNRGEC

Source: US20220098305A1 (Hoffmann-La Roche, published 2022)
